The target of one data set is Taq E507K (Thermus aquaticus, UniProt P19821 1-832, E507K). In words: EMSA; 95 mM KCl; 0.25 nM hairpin, 0.5-1000 nM enzyme, 1x Taq buffer (50 mM KCl for wild type, 95 mM KCl for mutants; full composition and pH not stated for this assay), 37 C, 30. Particulars: protein: recombinant, label: 5' 33P, recessed 3' end, 5' overhang. (In EMSA bound probe runs differently from free probe, usually more slowly.)

The target in data set [1] is Taq DNA polymerase (wild type) (Thermus aquaticus, UniProt P19821 1-832). As to the kind of experiment: EMSA; 50 mM KCl (enzyme's KCl optimum); 0.25 nM hairpin, 0.5-1000 nM enzyme, 1x Taq buffer (50 mM KCl for wild type, 95 mM KCl for mutants; full composition and pH not stated for this assay), 37 C, 30. Particulars: protein: recombinant, tags: none (His tag removed, pET11), label: 5' 33P, recessed 3' end, 5' overhang.

The target of another data set is Taq G59W (Thermus aquaticus, UniProt P19821 1-832, G59W). As to the kind of experiment: EMSA; 95 mM KCl (Methods: all assays with Taq mutants); text gives 91 nM; 0.25 nM hairpin, 0.5-1000 nM enzyme, 1x Taq buffer (50 mM KCl for wild type, 95 mM KCl for mutants; full composition and pH not stated for this assay), 37 C, 30. To be noted: protein: recombinant, label: 5' 33P, recessed 3' end, 5' overhang.

The values below come from article PMC4132270, “Compartmentalized self-replication under fast PCR cycling conditions yields Taq DNA polymerase mutants with increased DNA-binding affinity and blood resistance”.

B1: hairpin primer-template (structured_DNA)
DNA: CTCCAGACACGACGCAGTTGCCCGATGGTCGACGTTCGCGAAAGCGAACGTCGACCATCGGGCAACT
modifications: 3' end blocked with dideoxy TMP (3' ddT; unclear whether the printed 3' T is the ddT or it is added)
Broadly, the Kd is the concentration at which binding is half-saturated. Regarding B1, the Kd came to 1.1 nM in the data set with Taq E507K, 102 nM in data set [1] and 91.6 nM with Taq G59W.
